According to patent publication US20170073395A1 (Pfizer, published 2017):

Key:
[1] = biological target: T1, RAGE (cognate target of the anti-RAGE antibodies; species not stated at the place) (Homo sapiens (Human), UniProt Q15109 23-342); assay: HTRF epitope competition, IgG titrated; competitor parental IgG (Par-RAGE)
T1 construct: not shown: Carrier or tag of the soluble construct

[2] = biological target: T1, RAGE (cognate target of the anti-RAGE …); assay: Biacore T-200 SPR, IgG immobilised (~100 RU), purified target protein injected
Protocol: Biacore analysis was performed using the T-200 biosensor, series S CM5 chips, an amine-coupling kit, 10 mM sodium acetate immobilization buffer at pH 5.0, 10×HBS-P running buffer and NaOH for regeneration (GE Healthcare). Kinetic assay conditions were established to minimize the influence of mass transfer, avidity and rebinding events. A predefined ligand immobilization program was set up to immobilize approximately 100 Response Units (RU) of IgG on the chip. Purified target proteins were diluted in HBS-P running buffer to a range of final concentrations and injected at 50 μl/min for 3 mins. Dissociation was allowed to proceed for 10 min followed by a 5 sec pulse of 20 mM NaOH for regeneration of the chip surface. All sensorgrams were analyzed using the Biacore T-200 evaluation software.

hIL-21R = biological target: T2, hIL-21R (human, UniProt Q9HBE5 20-232, limits assumed); assay: Biacore specificity assay: IgG immobilised (about 300 RU), antigen injected at 500 nM
T2 construct: Non-target panel protein
Protocol: (§1) Biacore specificity analyses were performed using the T-200 biosensor, series S CM5 chips, an amine-coupling kit, 10 mM sodium acetate immobilization buffer at pH 5.0, 10× HBS-P running buffer and NaOH for regeneration (GE Healthcare). A predefined ligand (IgG) immobilization program was set up to immobilize approximately 300 Response Units (RU) on the flow cell for each IgG to be tested. For Anti-RAGE and anti-A33, a panel of fully-purified recombinant target and non-target antigens were diluted in HBS-P running buffer to a final concentration of 500 nM. Four groups of antigens were examined, including: cell membrane proteins (mTRKB, hTRKB, mEGFR, hEGFR, hFceR1, hIL-21R, mICAM1, mICAM2, hICAM1, hCD33, hLAMP-1, hLOX-1, and), soluble signaling molecules (mTNFa, hVEGF, hCXCL13) and albumins (BSA, HSA and MSA). These proteins were injected at 50 μl/min for 3 min, followed by a 5 sec pulse of 20 mM NaOH for regeneration of the chip surface. For pTau, a series of pTau-derived phosphorylated and non-phosphorylated peptides were flowed, as in Shih et al.³. All sensorgrams were analyzed using the Biacore T-200 evaluation software.

hCXCL13 = biological target: T3, hCXCL13 (human, UniProt O43927 23-109); assay: as above
T3 construct: Non-target panel protein
T3 sequence (looked up): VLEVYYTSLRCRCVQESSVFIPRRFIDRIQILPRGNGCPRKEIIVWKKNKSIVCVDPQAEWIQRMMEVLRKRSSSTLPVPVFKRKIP
Protocol: as §1

hVEGF = biological target: T4, hVEGF (human, UniProt P15692-4 27-191, limits assumed); assay: as above
T4 construct: Non-target panel protein
Protocol: as §1

mICAM2 = biological target: T5, mICAM2 (mouse, UniProt P35330 23-222, limits assumed); assay: as above
T5 construct: Non-target panel protein
T5 sequence (looked up): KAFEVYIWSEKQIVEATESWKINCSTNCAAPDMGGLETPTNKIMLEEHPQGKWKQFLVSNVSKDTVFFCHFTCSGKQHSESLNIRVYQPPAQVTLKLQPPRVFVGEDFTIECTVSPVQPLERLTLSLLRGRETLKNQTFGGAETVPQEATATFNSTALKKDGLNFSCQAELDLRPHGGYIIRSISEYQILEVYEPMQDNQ
Protocol: as §1

hLOX-1 = hLOX-1 (human, UniProt P78380 61-273); assay: as above
Protocol: as §1

mICAM1 = biological target: T6, mICAM1 (mouse, UniProt P13597 28-485, limits assumed); assay: as above
T6 construct: Non-target panel protein
Protocol: as §1

T1 sequence (Q15109 23-342 limits assumed): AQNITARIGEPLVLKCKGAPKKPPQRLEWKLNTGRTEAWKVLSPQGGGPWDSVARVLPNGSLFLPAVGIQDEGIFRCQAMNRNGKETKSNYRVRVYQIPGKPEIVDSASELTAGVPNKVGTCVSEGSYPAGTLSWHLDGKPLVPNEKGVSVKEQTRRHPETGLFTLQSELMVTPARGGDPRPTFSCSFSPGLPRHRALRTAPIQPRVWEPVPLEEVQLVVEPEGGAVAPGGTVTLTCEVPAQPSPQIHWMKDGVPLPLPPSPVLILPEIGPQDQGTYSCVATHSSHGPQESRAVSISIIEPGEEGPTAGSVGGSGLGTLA
T2 sequence (Q9HBE5 20-232 limits assumed): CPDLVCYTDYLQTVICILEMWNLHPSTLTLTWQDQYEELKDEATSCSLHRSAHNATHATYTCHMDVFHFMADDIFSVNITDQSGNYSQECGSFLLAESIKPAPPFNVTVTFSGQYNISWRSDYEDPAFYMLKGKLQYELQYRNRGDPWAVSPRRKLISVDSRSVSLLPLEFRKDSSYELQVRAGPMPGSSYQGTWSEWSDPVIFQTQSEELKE
T4 sequence (P15692 other isoform, or with tags, fused parts or gaps limits assumed): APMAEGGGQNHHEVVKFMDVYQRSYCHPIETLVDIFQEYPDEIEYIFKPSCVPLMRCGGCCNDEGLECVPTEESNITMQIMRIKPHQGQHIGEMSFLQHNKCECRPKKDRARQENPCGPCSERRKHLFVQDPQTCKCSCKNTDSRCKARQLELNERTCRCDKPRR
T6 sequence (P13597 28-485 limits assumed): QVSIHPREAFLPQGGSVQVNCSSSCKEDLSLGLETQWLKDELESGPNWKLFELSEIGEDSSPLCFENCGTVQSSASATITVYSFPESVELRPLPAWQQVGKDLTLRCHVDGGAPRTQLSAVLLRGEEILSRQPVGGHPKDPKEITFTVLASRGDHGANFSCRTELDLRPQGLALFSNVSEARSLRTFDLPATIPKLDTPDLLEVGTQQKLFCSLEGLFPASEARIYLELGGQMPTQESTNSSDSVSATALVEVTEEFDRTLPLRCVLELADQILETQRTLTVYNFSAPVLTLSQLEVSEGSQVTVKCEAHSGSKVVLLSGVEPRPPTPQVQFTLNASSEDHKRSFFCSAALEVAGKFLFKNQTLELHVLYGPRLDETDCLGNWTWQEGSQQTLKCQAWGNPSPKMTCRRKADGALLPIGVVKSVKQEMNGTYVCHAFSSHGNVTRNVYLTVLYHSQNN

B1: C7-ABS-RAGE IgG (human IgG1) (antibody, V domains shown)
VH: EVQLVESGGGLVQPGGSLRLSCAASGFTFSSYWMSWVRQAPGKGLEWVASIDQDGSNKYYPDSVKGRFTISRDNAKNSLYLQMNSLRAEDTAVYYCARGGDITTGLDYWGQGTLVTVSS
VL: DIQMTQSPSSLSASVGDRVTITCRASQSIGSYLNWYQQKPGKAPKLLIYRASSLASGVPSRFSGSGSGTDFTLTISSLQPEDFATYYCLEFDEHPLTFGGGTKVEIK
notes: Human IgG1 format
With B1 the IC50 [1] was 5.8 nM, the Kd [2] was 17 nM and the binding result (hIL-21R) was “no binding (tested: 500 nM)”. B1: no binding (tested: 500 nM) (hCXCL13); no binding (tested: 500 nM) (hVEGF); no binding (tested: 500 nM) (mICAM2). B1: no binding (tested: 500 nM) (hLOX-1); no binding (tested: 500 nM) (mICAM1).
